Results taken from patent publication US20170174789A1 (Regeneron, published 2017).

B1: H1H2332B (antibody, V domains shown)
VH: QVQLQESGPGLVKPSETLSLTCTVSGASISSYYWTWFRQPPGQGLEWIGYIYYSGSTNYNPSLKSRVTISVDTSMNQFSLKLTSVTAADTAVYYCARQGGYTSSLFDYWGQGTLVTVSS
VL: DIQMTQSPSSLSASVGDRVTITCRASQSISSYLNWYQQKPGKAPKLLIYVVSSLQSGVPSRFSGSGSGTDFTLTISSLQPEDFATYYCQQSYSIPWTFGQGTKVEIK
notes: Tested as H1H2332B (human IgG format, H1H prefix)
B2: hTie2-mFc (Fc fusion)
chain: AMDLILINSLPLVSDAETSLTCIASGWRPHEPITIGRDFEALMNQHQDPLEVTQDVTREWAKKVVWKREKASKINGAYFCEGRVRGEAIRIRTMKMRQQASFLPATLTMTVDKGDNVNISFKKVLIKEEDAVIYKNGSFIHSVPRHEVPDILEVHLPHAQPQDAGVYSARYIGGNLFTSAFTRLIVRRCEAQKWGPECNHLCTACMNNGVCHEDTGECICPPGFMGRTCEKACELHTFGRTCKERCSGQEGCKSYVFCLPDPYGCSCATGWKGLQCNEACHPGFYGPDCKLRCSCNNGEMCDRFQGCLCSPGWQGLQCEREGIPRMTPKIVDLPDHIEVNSGKFNPICKASGWPLPTNEEMTLVKPDGTVLHPKDFNHTDHFSVAIFTIHRILPPDSGVWVCSVNTVAGMVEKPFNISVKVLPKPLNAPNVIDTGHNFAVINISSEPYFGDGPIKSKKLLYKPVNHYEAWQHIQVTNEIVTLNYLEPRTEYELCVQLVRRGEGGEGHPGPVRRFTTASIGLPPPRGLNLLPKSQTTLNLTWQPIFPSSEDDFYVEVERRSVQKSDQQNIKVPGNLTSVLLNNLHPREQYVVRARVNTKAQGEWSEDLTAWTLSDILPPQPENIKISNITHSSAVISWTILDGYSISSITIRYKVQGKNEDQHVDVKIKNATIIQYQLKGLEPETAYQVDIFAENNIGSSNPAFSHELVTLPESQAPADLGGGKGPGEPRGPTIKPCPPCKCPAPNLLGGPSVFIFPPKIKDVLMISLSPIVTCVVVDVSEDDPDVQISWFVNNVEVHTAQTQTHREDYNSTLRVVSALPIQHQDWMSGKEFKCKVNNKDLPAPIERTISKPKGSVRAPQVYVLPPPEEEMTKKQVTLTCMVTDFMPEDIYVEWTNNGKTELNYKNTEPVLDSDGSYFMYSKLRVEKKNWVERNSYSCSVVHEGLHNHHTTKSFSRTPGK

Experiments:
[1] = target: T1, hTie2 (EGF) (human, UniProt Q02763 210-344); assay: Luminex bead binding
T1 construct: Domain-deletion construct linked to Luminex beads
Procedure: (§1) For binding, 25 μl of anti-Tie2 antibody (25 μg/ml) was added to 75 μl of the above created Luminex bead mixture (3×10³ beads per construct) in binding buffer (PBS, 0.05% Tween 20, 1 mg/ml BSA, 0.05% sodium azide) into a 96 well filter plate (Millipore). Incubation was at room temperature (RT) for 90 min or overnight at 4° C. with shaking. The beads were washed 3× with washing buffer (PBS+0.05% Tween 20) resuspended in 100 μl binding buffer containing PE (phycoerythrine)-labeled anti human kappa or PE-labeled anti mouse Fab secondary antibody and incubated at RT for 45 min with shaking. Samples were washed 2× more and binding signal (MFI) for each bead was determined using a Luminex L200 or FLEXMAP3D instrument. Bead linked human Tie2 was used as positive control and bead linked human Tie1 was used to measure family cross-reactivity. In general MFI signals greater than 500 units represent significant binding.

[2] = target: T2, hTie2 (Ig1-Ig2-EGF) (human, UniProt Q02763 24-344); assay: Luminex bead binding
T2 construct: Domain-deletion construct; also used for H/D exchange
Procedure: as §1

[3] = target: T3, hTie2 (Ig2-EGF) (human, UniProt Q02763 121-344); assay: Luminex bead binding
T3 construct: Domain-deletion construct linked to Luminex beads
Procedure: as §1

[4] = target: hTie2 on 293-Tie2/SRE-Luc cells (human, UniProt Q02763 23-1124); assay: cell-based or functional assay
[5] = target: T4, mTie2-hFc (mouse); assay: SPR Biacore 25C, mAb captured
T4 construct: also called mouse Tie2
Procedure: (§2) (Tables 3-6). Measurements were conducted on a Biacore 2000 or T200 instrument.
(§3) For antibodies with a mouse constant region (designated H1M or H2M), antibodies were immobilized onto an anti-mouse Fc sensor surface and different concentrations of human, mouse or rat Tie2 constructs (hTie2-His, mTie2-hFc and rTie2-hFc) were injected over the antibody captured surface. For antibodies in the human IgG format (designated H1H or H4H), either an anti-human Fc sensor surface (hTie2-His and hTie2-mFc) or anti-human Fab sensor surface (mTie2-hFc and rTie2-hFc) was employed depending on the Tie-2 construct applied to the antibody captured surface. Amino acid sequences of the constructs used in this Example are as follows: hTie2-His (SEQ ID NO:2); hTie2-hFc (SEQ ID NO:3); hTie2-mFc (SEQ ID NO:4); rTie2-hFc (SEQ ID NO:5); and mTie2-hFc (SEQ ID NO:6).
(§4) Kinetic rate constants—association rate (ka) and dissociation rate (kd) were determined by fitting the real time binding sensorgrams to a 1:1 binding model with mass transport limitation using Scrubber 2.0 curve fitting software. The equilibrium dissociation constant (KD) and dissociative half-life (T½) were calculated from the kinetic rate constants as: KD (M)=kd/ka; and T½ (min)=(In2/(60*kd).).

[6] = target: T5, rTie2-hFc (rat); assay: SPR Biacore 25C, mAb captured
T5 construct: also called rat Tie2
Procedure: as §2, §3, §4

[7] = target: T6, hAng2 (human, UniProt O15123 19-496, limits assumed); assay: Octet Red biosensor, hTie2.mFc captured on anti-mFc tips, 100 nM angiopoietin for 5 min; some tips first saturated with 300 nM H4H2055N or Control I
T6 construct: Bought protein; also called angiopoietin 2
T6 sequence (looked up): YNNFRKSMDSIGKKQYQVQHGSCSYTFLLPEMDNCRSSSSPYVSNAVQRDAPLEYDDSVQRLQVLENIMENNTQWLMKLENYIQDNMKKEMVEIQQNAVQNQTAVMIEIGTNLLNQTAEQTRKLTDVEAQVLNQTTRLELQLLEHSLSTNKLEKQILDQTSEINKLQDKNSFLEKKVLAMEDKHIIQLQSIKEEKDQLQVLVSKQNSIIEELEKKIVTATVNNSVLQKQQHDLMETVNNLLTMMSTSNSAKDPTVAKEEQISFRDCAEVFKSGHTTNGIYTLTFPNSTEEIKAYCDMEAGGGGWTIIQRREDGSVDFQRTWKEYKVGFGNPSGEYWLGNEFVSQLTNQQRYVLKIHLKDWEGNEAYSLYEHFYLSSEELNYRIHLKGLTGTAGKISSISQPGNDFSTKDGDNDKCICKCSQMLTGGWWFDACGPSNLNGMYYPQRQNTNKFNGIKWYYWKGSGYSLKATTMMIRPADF
Procedure: (§5) A further set of experiments was conducted to evaluate the ability of H4H2055N to block Tie2 binding to Ang2 and other members of the angiopoietin family (Ang1, Ang3 and Ang4). In this set of experiments, an Octet Red biosensor was employed using two experimental formats. In the first format, hTie2.mFc (SEQ ID NO:4; 10 μg/ml) or a negative control was captured on anti-mFc Octet sensor tips for 5 min. The captured sensor tip surfaces were then saturated with H4H2055N or Control I antibody by dipping into wells containing 300 nM of respective monoclonal antibodies for 10 min. Finally the sensor tips were placed into wells containing 100 nM of hAng1 (R&D Systems, Inc., Minneapolis, Minn., Cat 923-AN/CF; Accession #Q5HYA0), hAng2 (R&D Systems, Inc., Minneapolis, Minn., Cat 623-AN/CF; Accession #015123), mAng3 (R&D Systems, Inc., Minneapolis, Minn., Cat 738-AN/CF; Accession #Q9WVH6) or hAng4 (R&D Systems, Inc., Minneapolis, Minn., Cat 964-AN/CF; Accession Q9Y264) for 5 min. Binding response at each step of the experiment was monitored and the binding of different angiopoietins to the monoclonal antibody saturated receptor surfaces was plotted (FIG. 2). As illustrated by FIG. 2, H4H2055N blocked the binding of all four angiopoietins to the hTie2.mFc surface.

[8] = target: T7, mAng3 (mouse, UniProt Q9WVH6 22-509, limits assumed); assay: as above
T7 construct: Bought protein; also called angiopoietin 3
T7 sequence (looked up): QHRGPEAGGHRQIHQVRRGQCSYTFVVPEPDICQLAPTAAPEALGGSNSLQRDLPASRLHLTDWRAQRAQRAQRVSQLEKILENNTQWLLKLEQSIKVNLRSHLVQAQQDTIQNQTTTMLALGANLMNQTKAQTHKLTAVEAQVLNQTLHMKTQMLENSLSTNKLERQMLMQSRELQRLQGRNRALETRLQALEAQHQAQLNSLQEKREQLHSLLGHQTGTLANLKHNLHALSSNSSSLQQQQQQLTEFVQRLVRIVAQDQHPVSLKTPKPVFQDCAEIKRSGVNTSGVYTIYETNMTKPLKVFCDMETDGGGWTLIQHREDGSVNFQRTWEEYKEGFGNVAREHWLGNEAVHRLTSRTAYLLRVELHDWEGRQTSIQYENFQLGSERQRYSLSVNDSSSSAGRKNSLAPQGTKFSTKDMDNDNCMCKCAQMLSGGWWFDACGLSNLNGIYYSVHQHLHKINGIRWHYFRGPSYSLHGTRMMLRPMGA
Procedure: as §5

[9] = target: T8, hAng4 (human, UniProt Q9Y264 25-503, limits assumed); assay: as above
T8 construct: Bought protein; also called angiopoietin 4
T8 sequence (looked up): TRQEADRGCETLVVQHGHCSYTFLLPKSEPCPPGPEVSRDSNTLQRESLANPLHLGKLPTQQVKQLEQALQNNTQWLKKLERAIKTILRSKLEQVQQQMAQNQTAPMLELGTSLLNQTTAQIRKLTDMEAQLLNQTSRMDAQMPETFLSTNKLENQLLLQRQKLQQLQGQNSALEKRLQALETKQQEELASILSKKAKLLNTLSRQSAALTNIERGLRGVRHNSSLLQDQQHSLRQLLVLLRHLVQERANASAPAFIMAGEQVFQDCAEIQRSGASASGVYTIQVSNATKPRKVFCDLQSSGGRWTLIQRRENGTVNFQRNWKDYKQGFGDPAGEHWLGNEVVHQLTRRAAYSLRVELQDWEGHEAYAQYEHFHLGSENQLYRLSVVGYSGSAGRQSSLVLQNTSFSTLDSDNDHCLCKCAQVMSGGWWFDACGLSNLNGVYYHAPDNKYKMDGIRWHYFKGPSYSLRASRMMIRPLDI
Procedure: as §5

T5 sequence (chain, as listed by the source limits assumed): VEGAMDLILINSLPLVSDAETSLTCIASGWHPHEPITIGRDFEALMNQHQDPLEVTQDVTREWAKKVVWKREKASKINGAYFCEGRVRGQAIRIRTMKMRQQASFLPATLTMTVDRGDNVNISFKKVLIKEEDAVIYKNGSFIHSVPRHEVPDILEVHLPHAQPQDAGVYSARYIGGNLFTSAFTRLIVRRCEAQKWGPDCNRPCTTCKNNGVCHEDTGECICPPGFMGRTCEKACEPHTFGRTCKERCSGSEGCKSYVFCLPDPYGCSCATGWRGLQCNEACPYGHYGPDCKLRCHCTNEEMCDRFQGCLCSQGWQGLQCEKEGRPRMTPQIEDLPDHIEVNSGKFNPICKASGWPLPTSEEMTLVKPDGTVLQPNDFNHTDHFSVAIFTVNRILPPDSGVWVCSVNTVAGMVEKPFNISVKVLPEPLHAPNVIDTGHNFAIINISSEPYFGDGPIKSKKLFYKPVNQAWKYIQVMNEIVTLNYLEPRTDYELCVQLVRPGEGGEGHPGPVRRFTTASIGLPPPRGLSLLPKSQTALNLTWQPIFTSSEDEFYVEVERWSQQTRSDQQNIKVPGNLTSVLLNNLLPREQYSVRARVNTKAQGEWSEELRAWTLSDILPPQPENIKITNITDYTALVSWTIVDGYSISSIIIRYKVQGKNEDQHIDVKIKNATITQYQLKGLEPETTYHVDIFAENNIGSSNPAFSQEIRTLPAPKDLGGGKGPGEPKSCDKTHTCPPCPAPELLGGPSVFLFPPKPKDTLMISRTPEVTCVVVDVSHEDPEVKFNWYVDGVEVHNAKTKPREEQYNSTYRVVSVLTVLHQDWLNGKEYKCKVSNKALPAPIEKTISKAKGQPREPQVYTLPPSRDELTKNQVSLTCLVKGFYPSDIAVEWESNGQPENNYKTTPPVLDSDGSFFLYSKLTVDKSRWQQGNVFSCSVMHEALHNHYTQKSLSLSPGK
T1 sequence (Q02763 other isoform, or with tags, fused parts or gaps limits assumed): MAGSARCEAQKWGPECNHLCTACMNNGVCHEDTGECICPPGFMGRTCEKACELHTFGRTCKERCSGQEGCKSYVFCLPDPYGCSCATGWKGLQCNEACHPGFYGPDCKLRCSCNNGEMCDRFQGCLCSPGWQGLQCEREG
T3 sequence (Q02763 other isoform, or with tags, fused parts or gaps limits assumed): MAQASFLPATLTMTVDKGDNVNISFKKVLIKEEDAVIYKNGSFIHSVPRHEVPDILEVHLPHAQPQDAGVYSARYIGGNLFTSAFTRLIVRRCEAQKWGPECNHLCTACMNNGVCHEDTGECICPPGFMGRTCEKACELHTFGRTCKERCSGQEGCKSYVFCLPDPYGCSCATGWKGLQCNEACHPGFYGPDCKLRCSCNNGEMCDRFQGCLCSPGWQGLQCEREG

Binder	binding result [1]	binding result [2]	binding result [3]	EC50, Tie2 dependent luciferase activity, 293-Tie2/SRE-Luc cells with 1 nM BowAng1 [4] [nM]	EC50, Tie2 dependent luciferase activity, 293-Tie2/SRE-Luc cells with 1 nM BowAng2 [4] [nM]	Kd [5] [nM]	T½ [5] [min]	koff [5] [s⁻¹]	kon [5] [M⁻¹ s⁻¹]	Kd [6] [nM]	T½ [6] [min]	koff [6] [s⁻¹]	kon [6] [M⁻¹ s⁻¹]	binding result [7]	binding result [8]	binding result [9]
B1	no binding (tested: MFI >500 = significant binding)	no binding (tested: MFI >500 = significant binding)	no binding (tested: MFI >500 = significant binding)	2.5	3.7	107	2	0.00576	53900	55.3	2	0.00618	112000			
B2														binds	binds	binds
